Assay results: patent publication US20090226456A1 (published 2009)

Assays:
Experiment in all cases: flow cytometry on transiently transfected cells
[1] = target: T1, CD27 on transiently transfected cells (UniProt P26842 20-260, limits assumed)
T1 construct: whole, on cells
T1 sequence (looked up): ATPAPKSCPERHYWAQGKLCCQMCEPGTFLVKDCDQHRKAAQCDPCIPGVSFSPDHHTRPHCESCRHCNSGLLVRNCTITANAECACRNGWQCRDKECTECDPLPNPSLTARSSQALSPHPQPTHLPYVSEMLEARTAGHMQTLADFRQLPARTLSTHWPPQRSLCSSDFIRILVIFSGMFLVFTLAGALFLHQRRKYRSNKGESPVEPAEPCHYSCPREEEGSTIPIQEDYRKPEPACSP
Method: (§1) One million cells, in 0.1 ml of FACS buffer (PBS, 0.1% BSA, 0.1% NaN₃), were incubated with 0.1-1 microgram of protein or antibody at RT for 15 min. The cells were washed with 3 ml of FACS buffer, reacted with biotinylated primary antibody, and stained with PE-conjugated secondary antibody at RT for 15 min. Cells were then washed again, resuspended in 0.5 microgram/ml of propidium iodide, and live cells were gated and analyzed on a FACScan using the CellQuest software (BD Biosciences).

[2] = target: T2, CD30 on transiently transfected cells (UniProt P28908 19-595, limits assumed)
T2 construct: whole, on cells
T2 sequence (looked up): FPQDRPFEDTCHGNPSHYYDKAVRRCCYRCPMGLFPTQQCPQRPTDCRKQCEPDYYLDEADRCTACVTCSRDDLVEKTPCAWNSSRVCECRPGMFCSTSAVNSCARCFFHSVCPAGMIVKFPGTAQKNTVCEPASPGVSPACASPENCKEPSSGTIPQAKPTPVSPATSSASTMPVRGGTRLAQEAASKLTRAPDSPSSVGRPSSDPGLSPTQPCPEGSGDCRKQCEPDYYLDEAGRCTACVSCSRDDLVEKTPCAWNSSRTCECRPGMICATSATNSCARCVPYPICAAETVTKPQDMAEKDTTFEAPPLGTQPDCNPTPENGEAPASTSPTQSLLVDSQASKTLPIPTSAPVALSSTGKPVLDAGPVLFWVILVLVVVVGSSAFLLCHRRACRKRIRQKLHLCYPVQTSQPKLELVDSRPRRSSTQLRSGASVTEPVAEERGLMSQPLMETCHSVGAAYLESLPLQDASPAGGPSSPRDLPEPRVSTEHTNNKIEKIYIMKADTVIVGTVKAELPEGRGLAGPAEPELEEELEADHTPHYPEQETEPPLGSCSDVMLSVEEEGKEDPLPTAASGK
Method: as §1

[3] = target: T3, DR6 on transiently transfected cells (UniProt O75509 42-655, limits assumed)
T3 construct: whole, on cells
T3 sequence (looked up): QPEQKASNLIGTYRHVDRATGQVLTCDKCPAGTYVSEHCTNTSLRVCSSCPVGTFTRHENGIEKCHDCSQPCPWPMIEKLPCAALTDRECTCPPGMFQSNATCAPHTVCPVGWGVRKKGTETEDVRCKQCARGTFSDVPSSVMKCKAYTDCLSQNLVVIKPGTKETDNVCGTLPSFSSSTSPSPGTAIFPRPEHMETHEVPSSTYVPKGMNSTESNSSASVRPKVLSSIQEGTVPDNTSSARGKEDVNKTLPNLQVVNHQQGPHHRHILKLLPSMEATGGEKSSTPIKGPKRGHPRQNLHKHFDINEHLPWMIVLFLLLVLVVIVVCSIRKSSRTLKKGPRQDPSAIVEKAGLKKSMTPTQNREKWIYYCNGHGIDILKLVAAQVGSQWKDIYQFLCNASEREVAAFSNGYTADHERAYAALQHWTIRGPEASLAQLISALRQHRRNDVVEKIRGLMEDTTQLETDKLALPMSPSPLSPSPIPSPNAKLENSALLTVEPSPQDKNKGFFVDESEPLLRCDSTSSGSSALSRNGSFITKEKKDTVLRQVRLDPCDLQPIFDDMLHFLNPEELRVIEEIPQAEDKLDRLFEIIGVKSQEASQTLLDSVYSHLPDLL
Method: as §1

[4] = target: T4, DcR2 on transiently transfected cells (UniProt Q9UBN6 56-386, limits assumed)
T4 construct: whole, on cells
T4 sequence (looked up): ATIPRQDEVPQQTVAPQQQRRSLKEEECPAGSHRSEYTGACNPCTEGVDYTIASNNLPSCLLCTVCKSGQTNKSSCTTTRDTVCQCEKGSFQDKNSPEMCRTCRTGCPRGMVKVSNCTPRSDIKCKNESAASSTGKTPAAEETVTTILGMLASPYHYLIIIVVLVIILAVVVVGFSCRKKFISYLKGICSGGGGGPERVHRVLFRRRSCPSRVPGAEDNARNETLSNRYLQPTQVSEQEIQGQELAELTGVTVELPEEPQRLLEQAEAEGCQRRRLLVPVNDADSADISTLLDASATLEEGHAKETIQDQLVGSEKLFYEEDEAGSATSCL
Method: as §1

[5] = target: T5, RANK on transiently transfected cells (UniProt Q9Y6Q6 30-616, limits assumed)
T5 construct: whole, on cells
T5 sequence (looked up): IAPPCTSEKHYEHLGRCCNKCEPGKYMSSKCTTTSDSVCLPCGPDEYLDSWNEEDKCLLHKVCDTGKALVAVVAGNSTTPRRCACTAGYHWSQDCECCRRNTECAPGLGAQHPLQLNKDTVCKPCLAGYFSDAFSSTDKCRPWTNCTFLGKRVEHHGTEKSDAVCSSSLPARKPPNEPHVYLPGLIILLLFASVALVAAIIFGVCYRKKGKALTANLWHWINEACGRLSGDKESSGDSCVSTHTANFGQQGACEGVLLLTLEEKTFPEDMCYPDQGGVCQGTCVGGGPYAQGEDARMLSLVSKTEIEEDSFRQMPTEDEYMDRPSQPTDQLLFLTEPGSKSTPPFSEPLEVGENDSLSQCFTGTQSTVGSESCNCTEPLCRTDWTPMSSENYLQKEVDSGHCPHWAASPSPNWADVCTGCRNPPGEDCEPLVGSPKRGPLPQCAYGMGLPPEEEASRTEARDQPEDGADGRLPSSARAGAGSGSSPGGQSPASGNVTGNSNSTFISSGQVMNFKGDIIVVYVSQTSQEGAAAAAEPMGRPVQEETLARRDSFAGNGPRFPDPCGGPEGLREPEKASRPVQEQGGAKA
Method: as §1

[6] = target: T6, HveA on transiently transfected cells (Homo sapiens (Human), UniProt Q92956 39-283)
T6 construct: also called HVEM/TR2
T6 sequence: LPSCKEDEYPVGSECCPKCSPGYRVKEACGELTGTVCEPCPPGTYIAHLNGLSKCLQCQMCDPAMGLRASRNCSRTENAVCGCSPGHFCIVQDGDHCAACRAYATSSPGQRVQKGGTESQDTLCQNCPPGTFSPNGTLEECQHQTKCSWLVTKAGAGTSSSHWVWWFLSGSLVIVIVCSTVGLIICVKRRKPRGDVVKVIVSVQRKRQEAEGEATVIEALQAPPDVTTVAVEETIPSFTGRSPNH
Method: as §1

Measured: binding result

B1: FLAG-tagged soluble TNF-gamma-beta (aa 72-251) (ligand, human)
chain: DYKDDDDKLKGQEFAPSHQQVYAPLRADGDKPRAHLTVVRQTPTQHFKNQFPALHWEHELGLAFTKNRMNYTNKFLLIPESGDYFIYSQVTFRGMTSECSEIRQAGRPNKPDSITVVITKVTDSYPEPTQLLMGTKSVCEVGSNWFQPIYLGAMFSLQEGDKLMVNVSDISLVDYTKEDKTFFGAFLL
notes: also called FLAG-TNF-gamma-beta; FLAG-TL1β
no binding: [1] | [2] | [3] | [4] | [5] | [6]
